According to article PMC6156512:

Assays:
[1] = target: HPV 58 L1 aa 10–498 (human papillomavirus type 58); experiment: cryo-EM structure; purified VLPs at ~3 mg/mL vitrified on Quantifoil holey carbon grids; FEI TF30 at 300 kV; T = 7 particle images boxed manually; pentamers to VLP
[2] = target: HPV 58 L1 aa 10–498 (human papillomavirus type 58); experiment: not stated; purified L1 under reducing conditions (Fig. S4); about ~8 nm in diameter; monomers to pentamer
[3] = target: HPV 52 L1 aa 15–503 (human papillomavirus type 52); experiment: cryo-EM structure; purified VLPs at ~3 mg/mL vitrified on Quantifoil holey carbon grids; FEI TF30 at 300 kV; T = 7 particle images boxed manually; pentamers to VLP
[4] = target: HPV 52 L1 aa 15–503 (human papillomavirus type 52); experiment: not stated; purified L1 under reducing conditions (Fig. S4); about ~8 nm in diameter; monomers to pentamer
[5] = target: HPV 33 L1 aa 10–499 (human papillomavirus type 33) (UniProt P06416); experiment: cryo-EM structure; purified VLPs at ~3 mg/mL vitrified on Quantifoil holey carbon grids; FEI TF30 at 300 kV; T = 7 particle images boxed manually; pentamers to VLP
[6] = target: HPV 33 L1 aa 10–499 (human papillomavirus type 33) (UniProt P06416); experiment: not stated; purified L1 under reducing conditions (Fig. S4); about ~8 nm in diameter; monomers to pentamer
[7] = target: HPV 45 L1 aa 1–513 (human papillomavirus type 45); experiment: cryo-EM structure; purified VLPs at ~3 mg/mL vitrified on Quantifoil holey carbon grids; FEI TF30 at 300 kV; T = 7 particle images boxed manually; pentamers to VLP
[8] = target: HPV 45 L1 aa 1–513 (human papillomavirus type 45); experiment: not stated; purified L1 under reducing conditions (Fig. S4); about ~8 nm in diameter; monomers to pentamer

Q: With “HPV 58 L1 aa 10–498 (domain or fragment)” as the substance, how does the stoichiometry N (pentamers per particle) [1] read?
A: 72

Q: What about the stoichiometry N [2] of the same substance?
A: 5

Q: What does the source list for “HPV 52 L1 aa 15–503 (domain or fragment)”?
A: stoichiometry N (pentamers per particle) [3]: 72; stoichiometry N [4]: 5

Q: What does the source list for “HPV 33 L1 aa 10–499 (from UniProt P06416 10-499) (domain or fragment)”?
A: stoichiometry N (pentamers per particle) [5]: 72; stoichiometry N [6]: 5

Q: For HPV 45 L1 aa 1–513 (natural protein), which stoichiometry N (pentamers per particle) [7] is on record?
A: 72

Q: And the stoichiometry N [8]?
A: 5
